The text below walks through data of paper PMC2987830.

The target in test [1] is C-terminal truncated Myc-hFcγRIa which lacks the cytoplasmic tail (human) (UniProt P12314). The experiment in a line: adhesion of bacteria to transfected cells (total cell associated bacteria); COS-1 monolayers transfected with Myc-hFcγRIa, Myc-hFcγRIa-CT, Myc-hFcγRII or pcDNA3 (mock); E. coli K1 at an MOI of 100, 1.5 h, 37°C; cell associated bacteria plated.
Test [2] concerns the target FcγRIa of RAW 264.7 cells (mouse (endogenous in RAW 264.7)) (UniProt P26151).
UniProt P26151, sequence (P26151 25-404): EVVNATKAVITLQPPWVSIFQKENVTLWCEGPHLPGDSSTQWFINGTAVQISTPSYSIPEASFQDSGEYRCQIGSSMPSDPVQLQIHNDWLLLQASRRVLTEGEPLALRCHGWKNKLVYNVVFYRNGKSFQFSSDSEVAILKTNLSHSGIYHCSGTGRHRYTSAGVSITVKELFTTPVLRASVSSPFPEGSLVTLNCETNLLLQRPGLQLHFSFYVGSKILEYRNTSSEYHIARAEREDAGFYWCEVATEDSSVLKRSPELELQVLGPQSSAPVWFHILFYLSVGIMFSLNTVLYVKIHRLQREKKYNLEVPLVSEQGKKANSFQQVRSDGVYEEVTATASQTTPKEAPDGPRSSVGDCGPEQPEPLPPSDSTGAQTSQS

UniProt P12314, sequence (P12314 16-314): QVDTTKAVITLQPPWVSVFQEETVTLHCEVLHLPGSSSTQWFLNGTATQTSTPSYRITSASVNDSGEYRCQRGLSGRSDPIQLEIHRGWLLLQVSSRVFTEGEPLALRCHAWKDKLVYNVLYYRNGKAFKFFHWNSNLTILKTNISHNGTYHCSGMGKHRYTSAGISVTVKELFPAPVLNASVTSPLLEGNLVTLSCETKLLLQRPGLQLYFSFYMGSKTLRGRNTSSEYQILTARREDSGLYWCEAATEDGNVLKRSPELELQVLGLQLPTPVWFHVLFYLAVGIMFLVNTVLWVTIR

In turn, “outer membrane protein A (OmpA) of E. coli K1 (from UniProt P0A910 22-346) (natural protein)” had a decrease of bacterial binding against Myc-hFcγRIa+/COS-1 cells in test [1] of 30%. This substance also had a reduction of intracellular E. coli K1 in RAW 264.7 cells (gentamicin protection assay) by Fab fragments of anti-OmpA antibody or by anti-FcγRI antibody in test [2] of 80%.
